The values that follow come from publication PMC3713453 (Science signaling, 2013).

Some targets named below: Gal8_(C-CRD) V244A (human, UniProt O00214-2 228-359, V244A); Gal8_(C-CRD) K246A (human, UniProt O00214-2 228-359, K246A); Gal8_(C-CRD) H328A (human, UniProt O00214-2 228-359, H328A); Gal8_(C-CRD) I312L (human, UniProt O00214-2 228-359, I312L); Gal8_(C-CRD) I312V (human, UniProt O00214-2 228-359, I312V).
Holding throughout (assay): ITC
Background: In ITC the heat of successive injections is recorded.

Gal8_(C-CRD) H328A, sequence (O00214 186-317 H286A): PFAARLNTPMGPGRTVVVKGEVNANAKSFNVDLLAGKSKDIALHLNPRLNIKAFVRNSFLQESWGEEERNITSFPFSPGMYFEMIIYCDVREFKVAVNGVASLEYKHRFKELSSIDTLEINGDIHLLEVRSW
Gal8_(C-CRD) V244A, sequence (O00214 186-317 V202A): as the sequence (O00214 186-317 H286A) above, with V17A, A101H counted along it
Gal8_(C-CRD) I312V, sequence (O00214 186-317 I270V): as the sequence (O00214 186-317 H286A) above, with I85V, A101H counted along it
Gal8_(C-CRD) K246A, sequence (O00214 186-317 K204A): as the sequence (O00214 186-317 H286A) above, with K19A, A101H counted along it
Gal8_(C-CRD) I312L, sequence (O00214 186-317 I270L): as the sequence (O00214 186-317 H286A) above, with I85L, A101H counted along it

B1: NDP52_(368-381) peptide (peptide)
peptide: ARQNPGLAYGNPYS
B1: the binding result in the assay with Gal8_(C-CRD) V244A, with Gal8_(C-CRD) K246A, with Gal8_(C-CRD) I312L and in the assay with Gal8_(C-CRD) I312V was “binds” throughout. In addition, the “fold reduction of affinity against wild-type Gal8_(C-CRD)” value with Gal8_(C-CRD) H328A came to 8 fold.
